Paper PMC9464890, “Exosite binding modulates the specificity of the immunomodulatory enzyme ScpA, a C5a inactivating bacterial protease” (Computational and Structural Biotechnology Journal, 2022)
Substitutions are numbered along the chain they refer to. In names and notes the source's numbering stands.

T1: ScpAΔFn123 (Streptococcus pyogenes) (UniProt P15926)
T1 sequence: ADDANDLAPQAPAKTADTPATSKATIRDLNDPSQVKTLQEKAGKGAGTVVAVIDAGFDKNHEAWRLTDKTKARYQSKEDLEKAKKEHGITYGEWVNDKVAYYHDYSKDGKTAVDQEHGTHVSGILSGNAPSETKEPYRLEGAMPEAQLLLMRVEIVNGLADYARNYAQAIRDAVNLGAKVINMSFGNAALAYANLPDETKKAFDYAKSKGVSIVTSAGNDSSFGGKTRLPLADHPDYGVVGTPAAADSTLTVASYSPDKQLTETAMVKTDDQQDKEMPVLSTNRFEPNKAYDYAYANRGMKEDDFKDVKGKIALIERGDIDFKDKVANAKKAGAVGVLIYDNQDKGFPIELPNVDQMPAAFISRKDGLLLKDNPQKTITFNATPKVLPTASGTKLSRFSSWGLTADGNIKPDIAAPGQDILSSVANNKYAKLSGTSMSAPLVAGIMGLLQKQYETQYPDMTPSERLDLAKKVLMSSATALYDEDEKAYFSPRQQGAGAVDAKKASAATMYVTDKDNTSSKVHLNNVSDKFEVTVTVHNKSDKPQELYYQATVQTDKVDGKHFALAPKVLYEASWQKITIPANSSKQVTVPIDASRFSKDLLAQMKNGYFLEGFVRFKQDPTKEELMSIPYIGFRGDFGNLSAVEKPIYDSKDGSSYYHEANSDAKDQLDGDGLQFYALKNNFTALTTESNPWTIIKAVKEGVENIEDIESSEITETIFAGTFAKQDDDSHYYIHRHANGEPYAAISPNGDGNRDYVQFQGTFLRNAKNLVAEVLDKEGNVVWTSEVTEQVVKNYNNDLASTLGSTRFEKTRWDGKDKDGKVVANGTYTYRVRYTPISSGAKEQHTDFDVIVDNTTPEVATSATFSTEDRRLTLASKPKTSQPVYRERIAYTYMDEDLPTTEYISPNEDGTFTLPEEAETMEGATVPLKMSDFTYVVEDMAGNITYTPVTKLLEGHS

B1: ScpA_(S512A) (enzyme)
chain: ANTVTEDTPVTEQAVETPQPTAVSEEVPSSKETKTPQTPDDAEETIADDANDLAPQAPAKTADTPATSKATIRDLNDPSQVKTLQEKAGKGAGTVVAVIDAGFDKNHEAWRLTDKTKARYQSKEDLEKAKKEHGITYGEWVNDKVAYYHDYSKDGKTAVDQEHGTHVSGILSGNAPSETKEPYRLEGAMPEAQLLLMRVEIVNGLADYARNYAQAIRDAVNLGAKVINMSFGNAALAYANLPDETKKAFDYAKSKGVSIVTSAGNDSSFGGKTRLPLADHPDYGVVGTPAAADSTLTVASYSPDKQLTETAMVKTDDQQDKEMPVLSTNRFEPNKAYDYAYANRGMKEDDFKDVKGKIALIERGDIDFKDKVANAKKAGAVGVLIYDNQDKGFPIELPNVDQMPAAFISRKDGLLLKDNPQKTITFNATPKVLPTASGTKLSRFSSWGLTADGNIKPDIAAPGQDILSSVANNKYAKLSGTAMSAPLVAGIMGLLQKQYETQYPDMTPSERLDLAKKVLMSSATALYDEDEKAYFSPRQQGAGAVDAKKASAATMYVTDKDNTSSKVHLNNVSDKFEVTVTVHNKSDKPQELYYQATVQTDKVDGKHFALAPKVLYEASWQKITIPANSSKQVTVPIDASRFSKDLLAQMKNGYFLEGFVRFKQDPTKEELMSIPYIGFRGDFGNLSAVEKPIYDSKDGSSYYHEANSDAKDQLDGDGLQFYALKNNFTALTTESNPWTIIKAVKEGVENIEDIESSEITETIFAGTFAKQDDDSHYYIHRHANGEPYAAISPNGDGNRDYVQFQGTFLRNAKNLVAEVLDKEGNVVWTSEVTEQVVKNYNNDLASTLGSTRFEKTRWDGKDKDGKVVANGTYTYRVRYTPISSGAKEQHTDFDVIVDNTTPEVATSATFSTEDRRLTLASKPKTSQPVYRERIAYTYMDEDLPTTEYISPNEDGTFTLPEEAETMEGATVPLKMSDFTYVVEDMAGNITYTPVTKLLEGHS
B2: ScpA_(S512A,E864A) (enzyme)
chain: B1 chain with E834A
B3: ScpA_(S512A,D889A) (enzyme)
chain: B1 chain with D859A
B4: Fn123 (domain or fragment)
chain: T1 sequence

Columns and labels:
C5a (Homo sapiens) = C5a (Homo sapiens) (UniProt P01031); test: SPR; settings: cited from earlier work
R37A_(core) (human) = test: SPR; BIAcore X100, NTA sensor chip with about 20-25 RU of immobilised His-tagged C5a form (ligand), ScpA form flowed as ligate at 30 uL/min, 25 °C, 10 mM Hepes-KOH pH 7.4, 150 mM NaCl, 0.005% Tween 20, 50 uM EDTA; global fit, 1:1 Langmuir model with drifting baseline; triplicate
rhC5a_(core) (human) = test: as above
R46A_(core) (human) = test: as above
R40A_(core) (human) = test: as above
rhC5a_(R37A) (human) = test: as above
rhC5a_(R46A) (human) = test: as above
rhC5a_(R40A) (human) = test: as above
[1] = biological target: T1, ScpAΔFn123 (Streptococcus pyogenes)

C5a (Homo sapiens), sequence (P01031 678-751): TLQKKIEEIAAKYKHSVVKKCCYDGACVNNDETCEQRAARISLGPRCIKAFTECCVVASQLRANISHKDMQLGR

Molecule | Kd (R37A_(core) (human)) [nM] | koff (R37A_(core) (human)) [s⁻¹] | kon (R37A_(core) (human)) [M⁻¹ s⁻¹] | Kd (rhC5a_(core) (human)) [nM] | koff (rhC5a_(core) (human)) [s⁻¹] | kon (rhC5a_(core) (human)) [M⁻¹ s⁻¹] | Kd (R46A_(core) (human)) [nM] | koff (R46A_(core) (human)) [s⁻¹] | kon (R46A_(core) (human)) [M⁻¹ s⁻¹] | Kd (R40A_(core) (human)) [nM] | koff (R40A_(core) (human)) [s⁻¹] | kon (R40A_(core) (human)) [M⁻¹ s⁻¹] | Kd (rhC5a_(R37A) (human)) [nM] | koff (rhC5a_(R37A) (human)) [s⁻¹] | kon (rhC5a_(R37A) (human)) [M⁻¹ s⁻¹] | Kd (rhC5a_(R46A) (human)) [nM] | koff (rhC5a_(R46A) (human)) [s⁻¹] | kon (rhC5a_(R46A) (human)) [M⁻¹ s⁻¹] | Kd (rhC5a_(R40A) (human)) [nM] | koff (rhC5a_(R40A) (human)) [s⁻¹] | further results
ScpA (from UniProt P58099) |  |  |  |  |  |  |  |  |  |  |  |  |  |  |  |  |  |  |  |  | Kd (C5a (Homo sapiens)): 35 nM
B1 | 453 | 0.0151 | 33300 | 170 | 0.0075 | 45000 | 691 | 0.0152 | 22000 | 1340 | 0.0258 | 19300 | 217 | 0.0176 | 81200 | 220 | 0.0226 | 103000 | 290 | 0.0274 | kon (rhC5a_(R40A) (human)): 94400 M⁻¹ s⁻¹
B2 | 532 | 0.0121 | 22800 | 88.7 | 0.00438 | 49300 | 624 | 0.0132 | 21200 | 751 | 0.0195 | 26100 | 67.1 | 0.0101 | 150000 | 62.1 | 0.0213 | 344000 | 346 | 0.0271 | kon (rhC5a_(R40A) (human)): 78500 M⁻¹ s⁻¹
B3 | 384 | 0.0115 | 30100 | 90 | 0.004 | 44400 | 965 | 0.0121 | 12500 | 734 | 0.0182 | 24800 | 68.3 | 0.00934 | 137000 | 86.6 | 0.0129 | 148000 | 94.9 | 0.0259 | kon (rhC5a_(R40A) (human)): 273000 M⁻¹ s⁻¹
B4 |  |  |  |  |  |  |  |  |  |  |  |  |  |  |  |  |  |  |  |  | C5a-ase activity of ScpAΔFn123 complemented with Fn123, end-point assay, relative to the wild-type enzyme (data not shown) [1]: 0.1%
